According to patent US20230357429A1 (JANUX THERAPEUTICS, published 2023):
Where two headings read alike, the source gives them in different places. Each block holds one binder with its values, some of them ahead of it. Where no end group is shown, it is not given here.

B10: Peptide-77 (peptide)
peptide: YLCGPDTDETLACY
modifications: cysteine pairing not given here; also: biotinylated, site not given here
notes: mask peptide for the CD3 scFv

Tests used:
[1] = target: T1, Human TROP2 ECD (31-274 AA), biotinylated (human, UniProt P09758 31-274, biotinylated (site not stated)); assay: ELISA on immobilized TROP2
T1 construct: also called tumor-associated calcium signal transducer 2; Human TROP2-biotin
T1 sequence: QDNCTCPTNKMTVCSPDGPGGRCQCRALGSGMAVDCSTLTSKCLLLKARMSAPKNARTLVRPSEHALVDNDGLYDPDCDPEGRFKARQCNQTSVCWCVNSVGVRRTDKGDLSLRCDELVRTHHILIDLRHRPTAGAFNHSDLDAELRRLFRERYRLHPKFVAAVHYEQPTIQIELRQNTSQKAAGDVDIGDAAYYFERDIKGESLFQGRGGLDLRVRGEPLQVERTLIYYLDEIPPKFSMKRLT

TBD-1 wt = target: T2, TBD-1 wt; assay: competition ELISA: peptide titrated and pre-incubated with a constant concentration of TBD-1, then added to plate-bound biotinylated TROP2; blocked ligand TROP2 (2.m7)
T2 construct: Fab; the heavy chain entry is VH-CH1; also called wild-type anti-TROP2 Fab (hRS7); TROP2 Fab

Peptide-72 [2] = target: T3, Peptide-72 (cysteine pairing not given here; also: biotinylated, site not given here); assay: ELISA, TCE on captured biotin-peptide
T3 construct: mask peptide for the CD3 scFv
T3 peptide: AYCGPEFDESVGCM

Peptide-75 [3] = target: T4, Peptide-75 (cysteine pairing not given here; also: biotinylated, site not given here); assay: ELISA, TCE on captured biotin-peptide
T4 construct: mask peptide for the CD3 scFv
T4 peptide: GSACLGPEWEVCPY

Peptide-69 [4] = target: T5, Peptide-69 (cysteine pairing not given here; also: biotinylated, site not given here); assay: ELISA, TCE on captured biotin-peptide
T5 construct: mask peptide for the CD3 scFv
T5 peptide: SECLVDLQSDPCYW

Peptide-74 [5] = target: T6, Peptide-74 (cysteine pairing not given here; also: biotinylated, site not given here); assay: ELISA, TCE on captured biotin-peptide
T6 construct: mask peptide for the CD3 scFv
T6 peptide: ASQCLGPEWEVCPY

Peptide-65 = target: T7, Peptide-65 (cysteine pairing not given here; also: biotinylated, site not given here); assay: ELISA, TCE on captured biotin-peptide
T7 construct: mask peptide for the CD3 scFv
T7 peptide: QGCGTIADPEPHCW

Peptide-71 [6] = target: T8, Peptide-71 (cysteine pairing not given here; also: biotinylated, site not given here); assay: ELISA, TCE on captured biotin-peptide
T8 construct: mask peptide for the CD3 scFv
T8 peptide: VDCGPDGDESILCY

Peptide-68 [7] = target: T9, Peptide-68 (cysteine pairing not given here; also: biotinylated, site not given here); assay: ELISA, TCE on captured biotin-peptide
T9 construct: mask peptide for the CD3 scFv
T9 peptide: DWCWYSPDNDGLCD

[8] = target: T10, CD3 (biotinylated CD3 antigen) (human, UniProt P07766 23-126, limits assumed, biotinylated (site not stated)); assay: ELISA, TCE on captured biotin-CD3
T10 construct: also called CD3ε; human CD3

Peptide-66 [9] = target: T11, Peptide-66 (cysteine pairing not given here; also: biotinylated, site not given here); assay: ELISA, TCE on captured biotin-peptide
T11 construct: mask peptide for the CD3 scFv
T11 peptide: GSQCLGPEWEVCPY

[10] = target: T10, CD3 (biotinylated CD3 antigen); assay: ELISA: biotinylated CD3 captured on neutravidin plates, TCE titrated, HRP secondary antibody
Peptide-70 = target: T12, Peptide-70 (cysteine pairing not given here; also: biotinylated, site not given here); assay: ELISA, TCE on captured biotin-peptide
T12 construct: mask peptide for the CD3 scFv
T12 peptide: YLCGPDGDETLACY

Peptide-73 [11] = target: T13, Peptide-73 (cysteine pairing not given here; also: biotinylated, site not given here); assay: ELISA, TCE on captured biotin-peptide
T13 construct: mask peptide for the CD3 scFv
T13 peptide: VYCGPEFDESVGCA

Peptide-76 = target: T14, Peptide-76 (cysteine pairing not given here; also: biotinylated, site not given here); assay: ELISA, TCE on captured biotin-peptide
T14 construct: mask peptide for the CD3 scFv
T14 peptide: YLCGPDADETLACY

Peptide-77 = target: B10; assay: ELISA, TCE on captured biotin-peptide
Peptide-66 [12] = target: T11, Peptide-66; assay: ELISA, TCE on captured biotin-peptide
Peptide-72 [13] = target: T3, Peptide-72; assay: ELISA, TCE on captured biotin-peptide
Peptide-75 [14] = target: T4, Peptide-75; assay: ELISA, TCE on captured biotin-peptide
Peptide-69 [15] = target: T5, Peptide-69; assay: ELISA, TCE on captured biotin-peptide
Peptide-73 [16] = target: T13, Peptide-73; assay: ELISA, TCE on captured biotin-peptide
Peptide-74 [17] = target: T6, Peptide-74; assay: ELISA, TCE on captured biotin-peptide
Peptide-67 = target: T15, Peptide-67 (cysteine pairing not given here; also: biotinylated, site not given here); assay: ELISA, TCE on captured biotin-peptide
T15 construct: mask peptide for the CD3 scFv
T15 peptide: VYCGPEFDESVGCM

Peptide-71 [18] = target: T8, Peptide-71; assay: ELISA, TCE on captured biotin-peptide
Peptide-68 [19] = target: T9, Peptide-68; assay: ELISA, TCE on captured biotin-peptide
[20] = target: T10, CD3 (biotinylated CD3 antigen); assay: ELISA, TCE on captured biotin-CD3; remark: listed apart in the source
[21] = target: T16, TCE-37 (anti-CD3 scFv F104A; anti-TROP2 F108A); assay: competition ELISA, TCE on captured CD3
T16 construct: scFv on the Fab heavy chain

Binder: VDFCYLYNWPVCSK [Peptide-9]
binding result (TBD-1 wt): binds

B3: PC-3 (bispecific antibody)
light: GGVDFCKIYSWPVCHQGGGGSSGGSAAGLLAPPGGLSGRSDAGGGGSDIQLTQSPSSLSASVGDRVSITCKASQDVSIAVAWYQQKPGKAPKLLIYSASYRYTGVPDRFSGSGSGTDFTLTISSLQPEDFAVYYCQQHYITPLTFGAGTKVEIKRTVAAPSVFIFPPSDEQLKSGTASVVCLLNNFYPREAKVQWKVDNALQSGNSQESVTEQDSKDSTYSLSSTLTLSKADYEKHKVYACEVTHQGLSSPVTKSFNRGEC
heavy: not shown
notes: anti-TROP2 wt
EC50 [1]: 64.6 nM

B6: TCE-14 (anti-CD3 scFv F104A; anti-TROP2 wt) (bispecific antibody)
light: DIQLTQSPSSLSASVGDRVSITCKASQDVSIAVAWYQQKPGKAPKLLIYSASYRYTGVPDRFSGSGSGTDFTLTISSLQPEDFAVYYCQQHYITPLTFGAGTKVEIKRTVAAPSVFIFPPSDEQLKSGTASVVCLLNNFYPREAKVQWKVDNALQSGNSQESVTEQDSKDSTYSLSSTLTLSKADYEKHKVYACEVTHQGLSSPVTKSFNRGEC
heavy: not shown
notes: scFv on the Fab heavy chain; also called TCE-14 (F104A)
EC50 [8]: 0.83 nM | EC50 (Peptide-66 [9]): 0.63 nM | EC50 (Peptide-75 [3]): 0.88 nM | EC50 (Peptide-69 [4]): 1.93 nM | EC50 (Peptide-74 [5]): 0.66 nM | EC50 (Peptide-65): 1.52 nM

B9: TCE-33 (anti-CD3 scFv F240A; anti-TROP2 wt) (bispecific antibody)
light: DIQLTQSPSSLSASVGDRVSITCKASQDVSIAVAWYQQKPGKAPKLLIYSASYRYTGVPDRFSGSGSGTDFTLTISSLQPEDFAVYYCQQHYITPLTFGAGTKVEIKRTVAAPSVFIFPPSDEQLKSGTASVVCLLNNFYPREAKVQWKVDNALQSGNSQESVTEQDSKDSTYSLSSTLTLSKADYEKHKVYACEVTHQGLSSPVTKSFNRGEC
heavy: not shown
notes: scFv on the Fab heavy chain; also called TCE-33 (F240A)
EC50 (Peptide-66 [12]): 8.02 nM | EC50 (Peptide-72 [13]): 5.78 nM | EC50 (Peptide-75 [14]): 9.2 nM | EC50 (Peptide-69 [15]): 0.76 nM | EC50 (Peptide-73 [16]): 8.15 nM | EC50 (Peptide-74 [17]): 5.9 nM | EC50 (Peptide-67): 5.78 nM | EC50 (Peptide-71 [18]): 21.7 nM | EC50 (Peptide-68 [19]): 7.71 nM | EC50 [20]: 1.24 nM | EC50 [10]: 0.601 nM

Binder: LDFCKLYQWPVCFT [Peptide-15]
binding result (TBD-1 wt): binds

Binder: B10
IC50 [21]: 8870 nM

Other lines, results leading:

EC50 [1]: 32.8 nM
B1: PC-4 (bispecific antibody)
light: not shown
heavy: GGIDFCMLYNWPICAGGGGGSSGGSAAGLLAPPGGLSGRSDAGGGGSQVQLQQSGSELKKPGASVKVSCKASGYTFTNYGMNWVKQAPGQGLKWMGWINTYTGEPTYTDDFKGRFAFSLDTSVSTAYLQISSLKADDTAVYFCARGGFGSSYWYFDVWGQGSLVTVSSASTKGPSVFPLAPSSKSTSGGTAALGCLVKDYFPEPVTVSWNSGALTSGVHTFPAVLQSSGLYSLSSVVTVPSSSLGTQTYICNVNHKPSNTKVDKKVEPKSC
notes: anti-TROP2 wt

EC50 [1]: 78.5 nM
B2: PC-2 (bispecific antibody)
light: GGIDFCMLYNWPICAGGGGGSSGGSAAGLLAPPGGLSGRSDAGGGGSDIQLTQSPSSLSASVGDRVSITCKASQDVSIAVAWYQQKPGKAPKLLIYSASYRYTGVPDRFSGSGSGTDFTLTISSLQPEDFAVYYCQQHYITPLTFGAGTKVEIKRTVAAPSVFIFPPSDEQLKSGTASVVCLLNNFYPREAKVQWKVDNALQSGNSQESVTEQDSKDSTYSLSSTLTLSKADYEKHKVYACEVTHQGLSSPVTKSFNRGEC
heavy: not shown
notes: anti-TROP2 wt

EC50 (Peptide-72 [2]): 1.36 nM | EC50 (Peptide-75 [3]): 1.05 nM | EC50 (Peptide-69 [4]): 6.94 nM | EC50 (Peptide-74 [5]): 0.83 nM | EC50 (Peptide-65): 6.92 nM | EC50 (Peptide-71 [6]): 1.28 nM | EC50 (Peptide-68 [7]): 60.9 nM
B4: TCE-11 (anti-CD3 scFv H101A; anti-TROP2 wt) (bispecific antibody)
light: DIQLTQSPSSLSASVGDRVSITCKASQDVSIAVAWYQQKPGKAPKLLIYSASYRYTGVPDRFSGSGSGTDFTLTISSLQPEDFAVYYCQQHYITPLTFGAGTKVEIKRTVAAPSVFIFPPSDEQLKSGTASVVCLLNNFYPREAKVQWKVDNALQSGNSQESVTEQDSKDSTYSLSSTLTLSKADYEKHKVYACEVTHQGLSSPVTKSFNRGEC
heavy: not shown
notes: scFv on the Fab heavy chain; also called TCE-11 (H101A)

EC50 [8]: 1.69 nM | EC50 (Peptide-69 [4]): 1.69 nM | EC50 (Peptide-74 [5]): 0.36 nM | EC50 (Peptide-65): 2.71 nM | EC50 (Peptide-71 [6]): 0.34 nM
B5: TCE-13 (anti-CD3 scFv N103A; anti-TROP2 wt) (bispecific antibody)
light: DIQLTQSPSSLSASVGDRVSITCKASQDVSIAVAWYQQKPGKAPKLLIYSASYRYTGVPDRFSGSGSGTDFTLTISSLQPEDFAVYYCQQHYITPLTFGAGTKVEIKRTVAAPSVFIFPPSDEQLKSGTASVVCLLNNFYPREAKVQWKVDNALQSGNSQESVTEQDSKDSTYSLSSTLTLSKADYEKHKVYACEVTHQGLSSPVTKSFNRGEC
heavy: not shown
notes: scFv on the Fab heavy chain; also called TCE-13 (N103A)

EC50 [10]: 0.171 nM
B7: TCE-35 (anti-CD3 scFv N30Q, I109V, G172A, V231A; anti-TROP2 wt) (bispecific antibody)
light: DIQLTQSPSSLSASVGDRVSITCKASQDVSIAVAWYQQKPGKAPKLLIYSASYRYTGVPDRFSGSGSGTDFTLTISSLQPEDFAVYYCQQHYITPLTFGAGTKVEIKRTVAAPSVFIFPPSDEQLKSGTASVVCLLNNFYPREAKVQWKVDNALQSGNSQESVTEQDSKDSTYSLSSTLTLSKADYEKHKVYACEVTHQGLSSPVTKSFNRGEC
heavy: not shown
notes: scFv on the Fab heavy chain

EC50 (Peptide-70): 0.59 nM | EC50 (Peptide-73 [11]): 4.11 nM | EC50 (Peptide-76): 166 nM | EC50 (Peptide-77): 1620 nM
B8: TCE-36 (anti-CD3 scFv H101A; anti-TROP2 F108A) (bispecific antibody)
light: DIQLTQSPSSLSASVGDRVSITCKASQDVSIAVAWYQQKPGKAPKLLIYSASYRYTGVPDRFSGSGSGTDFTLTISSLQPEDFAVYYCQQHYITPLTFGAGTKVEIKRTVAAPSVFIFPPSDEQLKSGTASVVCLLNNFYPREAKVQWKVDNALQSGNSQESVTEQDSKDSTYSLSSTLTLSKADYEKHKVYACEVTHQGLSSPVTKSFNRGEC
heavy: not shown
notes: scFv on the Fab heavy chain

binding result (TBD-1 wt): binds
Binder: VDFCALYNWPVCET [Peptide-11]
